Drawing on publication PMC3105044, “The Membrane Bound LRR Lipoprotein Slr, and the Cell Wall-Anchored M1 Protein from Streptococcus pyogenes Both Interact with Type I Collagen” (PLoS ONE, 2011), this text covers Kd for two molecules.

In assay [1] the target is Collagen type I (UniProt P02452). As to the kind of experiment: SPR; collagen I immobilised by amine coupling on a CM3 chip (about 1500 RU); Slr or M1 diluted 2-fold from 500 nM, 35 µl/min, in 10 mM HEPES, 150 mM NaCl, 0.005% Surfactant P20, pH 7.5; BIAcore 2000; 1:1 Langmuir fit.
Sequence of Collagen type I (UniProt P02452) (P02452 162-1218, chain 1 of 2): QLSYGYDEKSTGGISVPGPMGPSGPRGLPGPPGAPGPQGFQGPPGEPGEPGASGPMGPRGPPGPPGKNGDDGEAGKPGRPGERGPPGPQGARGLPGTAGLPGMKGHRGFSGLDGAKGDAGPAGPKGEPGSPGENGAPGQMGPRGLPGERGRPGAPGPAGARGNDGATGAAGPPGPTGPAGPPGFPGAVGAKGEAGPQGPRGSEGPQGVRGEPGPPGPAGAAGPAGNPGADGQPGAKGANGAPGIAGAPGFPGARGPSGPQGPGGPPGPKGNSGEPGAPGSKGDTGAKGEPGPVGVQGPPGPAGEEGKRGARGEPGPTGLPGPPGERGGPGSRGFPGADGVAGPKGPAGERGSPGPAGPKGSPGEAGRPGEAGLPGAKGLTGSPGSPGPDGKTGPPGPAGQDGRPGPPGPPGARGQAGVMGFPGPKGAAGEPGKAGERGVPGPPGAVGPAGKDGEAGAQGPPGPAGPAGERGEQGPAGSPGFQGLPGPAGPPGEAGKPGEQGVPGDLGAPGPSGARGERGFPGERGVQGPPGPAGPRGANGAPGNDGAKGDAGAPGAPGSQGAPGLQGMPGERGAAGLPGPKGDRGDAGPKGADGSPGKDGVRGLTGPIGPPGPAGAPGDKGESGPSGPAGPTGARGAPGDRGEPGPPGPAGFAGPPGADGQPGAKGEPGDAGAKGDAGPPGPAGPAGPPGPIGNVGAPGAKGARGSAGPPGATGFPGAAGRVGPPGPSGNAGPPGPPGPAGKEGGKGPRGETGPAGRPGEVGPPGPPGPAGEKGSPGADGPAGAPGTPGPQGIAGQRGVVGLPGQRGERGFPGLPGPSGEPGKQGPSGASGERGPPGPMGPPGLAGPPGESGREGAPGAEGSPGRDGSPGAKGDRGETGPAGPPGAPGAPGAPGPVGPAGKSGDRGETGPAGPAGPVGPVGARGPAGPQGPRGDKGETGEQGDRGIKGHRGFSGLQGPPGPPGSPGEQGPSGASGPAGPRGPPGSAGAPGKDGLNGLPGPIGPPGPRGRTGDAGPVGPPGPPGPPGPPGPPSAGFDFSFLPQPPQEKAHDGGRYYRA
Sequence of Collagen type I (UniProt P02452) (P08123 80-1119, chain 2 of 2, further chain): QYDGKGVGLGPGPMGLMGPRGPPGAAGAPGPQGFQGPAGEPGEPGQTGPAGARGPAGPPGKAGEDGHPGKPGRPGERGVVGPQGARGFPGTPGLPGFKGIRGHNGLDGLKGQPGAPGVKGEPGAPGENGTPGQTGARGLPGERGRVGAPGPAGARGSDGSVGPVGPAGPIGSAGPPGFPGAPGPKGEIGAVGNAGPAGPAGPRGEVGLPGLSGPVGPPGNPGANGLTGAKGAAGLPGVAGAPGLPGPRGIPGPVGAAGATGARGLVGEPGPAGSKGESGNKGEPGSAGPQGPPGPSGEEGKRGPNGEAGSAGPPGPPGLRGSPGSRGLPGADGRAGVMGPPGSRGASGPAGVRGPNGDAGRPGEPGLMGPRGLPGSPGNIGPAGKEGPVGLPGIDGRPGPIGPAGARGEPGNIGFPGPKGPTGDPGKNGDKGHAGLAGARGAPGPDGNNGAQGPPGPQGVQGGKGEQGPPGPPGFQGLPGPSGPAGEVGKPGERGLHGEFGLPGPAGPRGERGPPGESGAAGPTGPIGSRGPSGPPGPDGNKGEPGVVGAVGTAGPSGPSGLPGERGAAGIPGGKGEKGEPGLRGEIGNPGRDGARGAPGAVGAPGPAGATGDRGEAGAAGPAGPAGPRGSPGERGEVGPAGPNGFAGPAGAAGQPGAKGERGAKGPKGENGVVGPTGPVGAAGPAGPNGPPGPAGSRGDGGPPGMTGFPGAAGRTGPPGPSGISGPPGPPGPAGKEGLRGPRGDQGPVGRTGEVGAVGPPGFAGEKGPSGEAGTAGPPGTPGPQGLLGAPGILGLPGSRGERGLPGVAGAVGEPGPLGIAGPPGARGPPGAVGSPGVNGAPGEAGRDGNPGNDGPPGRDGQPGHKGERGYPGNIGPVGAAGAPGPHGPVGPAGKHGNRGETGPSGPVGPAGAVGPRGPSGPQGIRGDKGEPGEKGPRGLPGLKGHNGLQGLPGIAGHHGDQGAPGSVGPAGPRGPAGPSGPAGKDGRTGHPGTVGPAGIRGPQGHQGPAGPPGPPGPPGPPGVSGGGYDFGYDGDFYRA
The target in assay [2] is T1, Collagen type I (UniProt P02452 162-1218; P08123 80-1119).
T1 construct: collagen I alpha1 chain (printed as the α1 chain, 134 kDa); collagen I alpha2 chain (printed as the α2 chain, 130 kDa); Used non-denatured, denatured with 4 M guanidine hydrochloride, monomeric and fibrillar; also called collagen I; monomeric collagen I; source: bought: Sigma
T1 sequence (P02452 162-1218, chain 1 of 2): as the sequence (P02452 162-1218, chain 1 of 2) above
T1 sequence (P08123 80-1119, chain 2 of 2): as the sequence (P08123 80-1119, chain 2 of 2, further chain) above
The description is as above. The conditions noted are these: both partners purified.

“streptococcal leucine rich (Slr) protein, recombinant, GST tag removed (from UniProt F8THZ1 1-792) (natural protein)” had a Kd in the assay with Collagen type I [1] of 12 nM.

B1: M1 protein from Streptococcus pyogenes, purified from culture supernatants of strain MC25 (natural protein)
chain: NGDGNPREVIEDLAANNPAIQNIRLRYENKDLKARLENAMEVAGRDFKRAEELEKAKQALEDQRKDLETKLKELQQDYDLAKESTSWDRQRLEKELEEKKEALELAIDQASRDYHRATALEKELEEKKKALELAIDQASQDYNRANVLEKELETITREQEINRNLLGNAKLELDQLSSEKEQLTIEKAKLEEEKQISDASRQSLRRDLDASREAKKQVEKDLANLTAELDKVKEDKQISDASRQGLRRDLDASREAKKQVEKDLANLTAELDKVKEEKQISDASRQGLRRDLDASREAKKQVEKALEEANSKLAALEKLNKELEESKKLTEKEKAELQAKLEAEAKALKEQLAKQAEELAKLRAGKASDSQTPDTKPGNKAVPGKGQAPQAGTKPNQNKAPMKETKRQLPST
In the assay with Collagen type I [2], B1 had a Kd of 54 nM.
